Data: patent publication US20210332145A1 (SINGLE CELL TECHNOLOGY, published 2021)

Target: T1, BCMA on cells (293T cells transfected with BCMA; H929, MM.1S and U266 cell lines expressing BCMA) (human, UniProt Q02223 1-184)
T1 construct: H929, MM.1S and U266 carry the native protein; also called B-cell Maturation Antigen; TNFRSF17
T1 sequence: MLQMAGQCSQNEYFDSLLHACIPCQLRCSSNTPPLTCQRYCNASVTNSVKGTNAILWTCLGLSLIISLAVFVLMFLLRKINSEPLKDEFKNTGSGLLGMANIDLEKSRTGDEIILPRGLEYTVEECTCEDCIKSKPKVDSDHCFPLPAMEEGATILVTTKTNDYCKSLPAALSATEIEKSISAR
Test: flow cytometry, 293T cells transfected with BCMA

B1: SCT-Aa02 (antibody, V domains shown)
VH: EVKLLQSGGGLVQPGGSLKLSCAASGIDFSRYWMSWVRRAPGKGLEWIGEINPDSSTINSAPSLEDKFIISRDNAKNTLYLQMSKVRSEDTALYYCASLYYDYERDYAMDYWGQGASVTVSS
VL: DIVMTQSQKFMSTSVGDRVSVTCKASQNVGTNVAWYQQKPGQSPKALIYSASYRFSGVPDRFTGSGSGTDFTLTISNVQSEDLAEYFCQQYHSYPFTFGGGTKLEIK
binding result: binds
